Data reported in IntAct's records for PubMed 35512704.

B1: Mothers against decapentaplegic homolog 4 (Homo sapiens), Q13485 (parent)
chain: MDNMSITNTPTSNDACLSIVHSLMCHRQGGESETFAKRAIESLVKKLKEKKDELDSLITAITTNGAHPSKCVTIQRTLDGRLQVAGRKGFPHVIYARLWRWPDLHKNELKHVKYCQYAFDLKCDSVCVNPYHYERVVSPGIDLSGLTLQSNAPSSMMVKDEYVHDFEGQPSLSTEGHSIQTIQHPPSNRASTETYSTPALLAPSESNATSTANFPNIPVASTSQPASILGGSHSEGLLQIASGPQPGQQQNGFTGQPATYHHNSTTTWTGSRTAPYTPNLPHHQNGHLQHHPPMPPHPGHYWPVHNELAFQPPISNHPAPEYWCSIAYFEMDVQVGETFKVPSSCPIVTVDGYVDPSGGDRFCLGQLSNVHRTEAIERARLHIGKGVQLECKGEGDVWVRCLSDHAVFVQSYYLDREAGRAPGDAVHKIYPSAYIKVFDLRQCHRQMQQQAATAQAAAAAQAAAVAGNIPGPGSVGGIAPAISLSAAAGIGVDDLRRLCILRMSFVKGWGPDYPRQSIKETPCWIEIHLHRALQLLDEVLHTMPIADPQPLD
partner: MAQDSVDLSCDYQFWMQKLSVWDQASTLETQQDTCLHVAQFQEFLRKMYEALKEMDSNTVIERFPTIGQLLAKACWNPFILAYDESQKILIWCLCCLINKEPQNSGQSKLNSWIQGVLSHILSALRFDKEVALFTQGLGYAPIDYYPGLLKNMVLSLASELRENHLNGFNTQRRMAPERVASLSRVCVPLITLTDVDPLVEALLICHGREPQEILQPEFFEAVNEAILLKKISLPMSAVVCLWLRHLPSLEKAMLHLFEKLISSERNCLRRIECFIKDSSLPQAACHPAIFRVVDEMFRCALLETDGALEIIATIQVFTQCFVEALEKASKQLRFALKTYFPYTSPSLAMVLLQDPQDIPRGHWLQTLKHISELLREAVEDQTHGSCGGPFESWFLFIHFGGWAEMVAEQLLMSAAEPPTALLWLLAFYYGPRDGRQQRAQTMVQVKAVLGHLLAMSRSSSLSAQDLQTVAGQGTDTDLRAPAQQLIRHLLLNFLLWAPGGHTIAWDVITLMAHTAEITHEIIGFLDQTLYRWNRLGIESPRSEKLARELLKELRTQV
B2: Mothers against decapentaplegic homolog 4 (Homo sapiens), Q13485 (parent)
chain: B1 chain
partner: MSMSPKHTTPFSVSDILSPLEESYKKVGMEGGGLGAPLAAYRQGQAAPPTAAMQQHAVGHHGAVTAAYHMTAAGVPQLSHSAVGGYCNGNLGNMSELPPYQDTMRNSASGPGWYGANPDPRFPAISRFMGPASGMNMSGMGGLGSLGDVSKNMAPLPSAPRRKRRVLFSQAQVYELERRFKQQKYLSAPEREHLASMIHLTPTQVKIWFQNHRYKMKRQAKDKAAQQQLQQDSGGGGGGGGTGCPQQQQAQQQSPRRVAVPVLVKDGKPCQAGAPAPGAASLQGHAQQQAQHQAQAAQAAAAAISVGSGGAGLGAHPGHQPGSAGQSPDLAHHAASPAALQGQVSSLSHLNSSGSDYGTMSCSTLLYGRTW
B3: Mothers against decapentaplegic homolog 4 (Homo sapiens), Q13485 (parent)
chain: B1 chain
partner: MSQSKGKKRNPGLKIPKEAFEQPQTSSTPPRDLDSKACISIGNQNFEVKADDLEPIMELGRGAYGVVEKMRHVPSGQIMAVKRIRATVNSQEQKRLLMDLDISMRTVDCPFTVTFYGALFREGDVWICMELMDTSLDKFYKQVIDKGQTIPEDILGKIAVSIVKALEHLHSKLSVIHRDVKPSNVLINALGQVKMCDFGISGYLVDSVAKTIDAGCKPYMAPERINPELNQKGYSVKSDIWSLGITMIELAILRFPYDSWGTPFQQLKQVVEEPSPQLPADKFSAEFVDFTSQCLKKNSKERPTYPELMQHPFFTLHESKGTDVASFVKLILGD
B4: Mothers against decapentaplegic homolog 4 (Homo sapiens), Q13485 (parent)
chain: B1 chain
partner: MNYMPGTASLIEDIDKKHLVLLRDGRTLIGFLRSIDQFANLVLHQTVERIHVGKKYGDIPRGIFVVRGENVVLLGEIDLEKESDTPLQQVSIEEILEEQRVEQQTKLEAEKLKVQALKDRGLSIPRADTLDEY
B5: Mothers against decapentaplegic homolog 4 (Homo sapiens), Q13485 (parent)
chain: B1 chain
partner: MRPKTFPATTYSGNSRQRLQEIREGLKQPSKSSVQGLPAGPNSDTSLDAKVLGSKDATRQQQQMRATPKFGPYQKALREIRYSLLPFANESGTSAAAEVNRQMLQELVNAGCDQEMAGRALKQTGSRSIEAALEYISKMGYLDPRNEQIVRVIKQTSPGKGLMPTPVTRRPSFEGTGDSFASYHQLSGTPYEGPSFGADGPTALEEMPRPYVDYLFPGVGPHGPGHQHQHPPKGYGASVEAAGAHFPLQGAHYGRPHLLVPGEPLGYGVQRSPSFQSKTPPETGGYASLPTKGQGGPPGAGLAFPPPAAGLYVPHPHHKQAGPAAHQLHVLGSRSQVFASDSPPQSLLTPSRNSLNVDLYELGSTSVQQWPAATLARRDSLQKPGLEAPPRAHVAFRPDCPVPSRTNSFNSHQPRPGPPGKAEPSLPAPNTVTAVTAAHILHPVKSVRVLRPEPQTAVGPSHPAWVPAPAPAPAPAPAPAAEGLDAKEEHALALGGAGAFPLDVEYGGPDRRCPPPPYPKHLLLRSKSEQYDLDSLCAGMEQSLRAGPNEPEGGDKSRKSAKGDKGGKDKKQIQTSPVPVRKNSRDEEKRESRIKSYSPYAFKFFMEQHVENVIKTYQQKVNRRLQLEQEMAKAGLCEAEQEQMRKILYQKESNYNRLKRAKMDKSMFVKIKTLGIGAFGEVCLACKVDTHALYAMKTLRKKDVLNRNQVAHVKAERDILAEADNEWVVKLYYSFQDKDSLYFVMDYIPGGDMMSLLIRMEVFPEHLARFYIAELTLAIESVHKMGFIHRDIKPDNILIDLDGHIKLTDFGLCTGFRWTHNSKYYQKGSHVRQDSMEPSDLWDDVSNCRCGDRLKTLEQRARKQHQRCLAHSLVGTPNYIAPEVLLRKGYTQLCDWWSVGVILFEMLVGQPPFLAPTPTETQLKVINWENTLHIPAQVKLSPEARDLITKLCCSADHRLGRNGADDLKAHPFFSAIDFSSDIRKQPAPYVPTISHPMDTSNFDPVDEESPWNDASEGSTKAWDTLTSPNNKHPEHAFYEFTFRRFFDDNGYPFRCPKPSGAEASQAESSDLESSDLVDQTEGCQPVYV
B6: Mothers against decapentaplegic homolog 4 (Homo sapiens), Q13485 (parent)
chain: B1 chain
partner: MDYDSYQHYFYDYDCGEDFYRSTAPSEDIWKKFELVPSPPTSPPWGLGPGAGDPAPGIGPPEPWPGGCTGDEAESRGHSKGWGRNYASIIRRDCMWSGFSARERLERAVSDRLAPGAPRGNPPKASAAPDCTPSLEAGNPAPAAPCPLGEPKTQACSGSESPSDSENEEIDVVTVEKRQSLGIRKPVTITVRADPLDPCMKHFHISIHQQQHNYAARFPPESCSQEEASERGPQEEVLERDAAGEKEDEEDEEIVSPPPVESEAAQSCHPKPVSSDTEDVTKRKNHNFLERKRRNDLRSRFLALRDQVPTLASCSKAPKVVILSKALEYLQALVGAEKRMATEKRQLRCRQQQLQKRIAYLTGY

Variants of: B1
Settings: with fancc_human FANCC
For D351H, the “effect of a mutation on the interaction” value was “with no effect”.

Variants of: B1
Settings: with fancc_human FANCC
Remark: another data set of the same source
In the case of G386D, the “effect of a mutation on the interaction” value is reported as “with no effect”.

Variants of: B1
Settings: with fancc_human FANCC
Remark: another data set of the same source
R361H was tested, and the “effect of a mutation on the interaction” value was “with no effect”.

Variants of: B1
Settings: with fancc_human FANCC
Remark: another data set of the same source
For R361C, the “effect of a mutation on the interaction” value was “with no effect”.

Variants of: B2
Settings: with nkx21_human NKX2-1, P43699
In the case of G386D, the “effect of a mutation on the interaction” value is reported as “with no effect”.

Variants of: B2
Settings: with nkx21_human NKX2-1, P43699
Remark: another data set of the same source
With D351H the “effect of a mutation on the interaction” value was “with no effect”.

Variants of: B2
Settings: with nkx21_human NKX2-1, P43699
Remark: another data set of the same source
With R361C the “effect of a mutation on the interaction” value was “with no effect”.

Variants of: B2
Settings: with nkx21_human NKX2-1, P43699
Remark: another data set of the same source
In the case of R361H, the “effect of a mutation on the interaction” value is reported as “with no effect”.

Variants of: B3
Settings: with mp2k6_human MAP2K6, P52564
In the case of D351H, the “effect of a mutation on the interaction” value is reported as “with no effect”.

Variants of: B3
Settings: with mp2k6_human MAP2K6, P52564
Remark: another data set of the same source
R361C was tested, and the “effect of a mutation on the interaction” value was “with no effect”.

Variants of: B3
Settings: with mp2k6_human MAP2K6, P52564
Remark: another data set of the same source
R361H was tested, and the “effect of a mutation on the interaction” value was “with no effect”.

Variants of: B3
Settings: with mp2k6_human MAP2K6, P52564
Remark: another data set of the same source
For G386D, the “effect of a mutation on the interaction” value was “with no effect”.

Variants of: B4
Settings: with lsm1_human LSM1, O15116
In the case of G386D, the “effect of a mutation on the interaction” value is reported as “with no effect”.

Variants of: B4
Settings: with lsm1_human LSM1, O15116
Remark: another data set of the same source
In the case of R361C, the “effect of a mutation on the interaction” value is reported as “with no effect”.

Variants of: B4
Settings: with lsm1_human LSM1, O15116
Remark: another data set of the same source
With R361H the “effect of a mutation on the interaction” value was “with no effect”.

Variants of: B4
Settings: with lsm1_human LSM1, O15116
Remark: another data set of the same source
In the case of D351H, the “effect of a mutation on the interaction” value is reported as “with no effect”.

Variants of: B5
Settings: with lats2_human LATS2, Q9NRM7
R361C was tested, and the “effect of a mutation on the interaction” value was “with no effect”.

Variants of: B5
Settings: with lats2_human LATS2, Q9NRM7
Remark: another data set of the same source
With R361H the “effect of a mutation on the interaction” value was “with no effect”.

Variants of: B5
Settings: with lats2_human LATS2, Q9NRM7
Remark: another data set of the same source
In the case of G386D, the “effect of a mutation on the interaction” value is reported as “with no effect”.

Variants of: B5
Settings: with lats2_human LATS2, Q9NRM7
Remark: another data set of the same source
For D351H, the “effect of a mutation on the interaction” value was “with no effect”.

Variants of: B6
Settings: with mycl_human MYCL
In the case of G386D, the “effect of a mutation on the interaction” value is reported as “with no effect”.

Variants of: B6
Settings: with mycl_human MYCL
Remark: another data set of the same source
D351H was tested, and the “effect of a mutation on the interaction” value was “with no effect”.

Variants of: B6
Settings: with mycl_human MYCL
Remark: another data set of the same source
In the case of R361H, the “effect of a mutation on the interaction” value is reported as “with no effect”.
